The values that follow are results of earlier work, collected in article PMC3082853.

The target of this series is FepA (Escherichia coli) (UniProt P05825).
Chain of UniProt P05825 (P05825 23-746): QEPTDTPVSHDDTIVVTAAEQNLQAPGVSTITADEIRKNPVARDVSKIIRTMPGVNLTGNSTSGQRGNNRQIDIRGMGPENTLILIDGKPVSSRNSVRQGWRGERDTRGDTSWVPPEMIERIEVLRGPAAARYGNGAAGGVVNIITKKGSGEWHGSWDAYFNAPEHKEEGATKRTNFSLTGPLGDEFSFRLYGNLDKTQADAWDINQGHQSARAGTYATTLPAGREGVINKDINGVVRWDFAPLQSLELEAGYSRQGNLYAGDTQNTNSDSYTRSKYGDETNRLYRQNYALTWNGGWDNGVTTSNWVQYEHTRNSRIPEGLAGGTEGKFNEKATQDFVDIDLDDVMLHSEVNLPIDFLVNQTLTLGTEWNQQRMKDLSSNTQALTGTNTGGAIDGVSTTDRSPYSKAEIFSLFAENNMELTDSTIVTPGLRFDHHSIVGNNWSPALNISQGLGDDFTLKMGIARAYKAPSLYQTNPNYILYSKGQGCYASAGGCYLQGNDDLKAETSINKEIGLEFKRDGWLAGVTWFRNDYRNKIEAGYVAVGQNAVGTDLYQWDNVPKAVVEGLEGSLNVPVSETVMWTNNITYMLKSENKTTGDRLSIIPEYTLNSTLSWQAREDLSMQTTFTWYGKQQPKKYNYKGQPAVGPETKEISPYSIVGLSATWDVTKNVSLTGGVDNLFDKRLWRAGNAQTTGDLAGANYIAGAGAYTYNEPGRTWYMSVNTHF

As to colicin B (from UniProt P05819), the Kd (usually the concentration at which binding is half-saturated) was 0.185 µM.
